# Assay results reported in patent US8716246B2, “Azuvirin peptides” (The Regents of the University of California, priority 2011, dated 2014).
# Square brackets hold non-standard residues; d marks the D form. Peptide text beside a SMILES is read from it. * marks the point of attachment. Oic = O=C(O)[C@@H]1C[C@@H]2CCCC[C@@H]2N1; Cha = N[C@@H](CC1CCCCC1)C(=O)O; Tle = CC(C)(C)[C@H](N)C(=O)O; Nicotinoyl = O=C(c1cccnc1)*; Acm = CC(=O)NC*
# Assays:
# rhEphB4 = target: T1, rhEphB4 (Homo sapiens, UniProt P54760); assay: SPR binding to immobilized rhEphB4 (Biacore 3000)
# T1 construct: purchased R&D Systems, Inc., Minneapolis, Minn
# T1 sequence (P54760 16-987): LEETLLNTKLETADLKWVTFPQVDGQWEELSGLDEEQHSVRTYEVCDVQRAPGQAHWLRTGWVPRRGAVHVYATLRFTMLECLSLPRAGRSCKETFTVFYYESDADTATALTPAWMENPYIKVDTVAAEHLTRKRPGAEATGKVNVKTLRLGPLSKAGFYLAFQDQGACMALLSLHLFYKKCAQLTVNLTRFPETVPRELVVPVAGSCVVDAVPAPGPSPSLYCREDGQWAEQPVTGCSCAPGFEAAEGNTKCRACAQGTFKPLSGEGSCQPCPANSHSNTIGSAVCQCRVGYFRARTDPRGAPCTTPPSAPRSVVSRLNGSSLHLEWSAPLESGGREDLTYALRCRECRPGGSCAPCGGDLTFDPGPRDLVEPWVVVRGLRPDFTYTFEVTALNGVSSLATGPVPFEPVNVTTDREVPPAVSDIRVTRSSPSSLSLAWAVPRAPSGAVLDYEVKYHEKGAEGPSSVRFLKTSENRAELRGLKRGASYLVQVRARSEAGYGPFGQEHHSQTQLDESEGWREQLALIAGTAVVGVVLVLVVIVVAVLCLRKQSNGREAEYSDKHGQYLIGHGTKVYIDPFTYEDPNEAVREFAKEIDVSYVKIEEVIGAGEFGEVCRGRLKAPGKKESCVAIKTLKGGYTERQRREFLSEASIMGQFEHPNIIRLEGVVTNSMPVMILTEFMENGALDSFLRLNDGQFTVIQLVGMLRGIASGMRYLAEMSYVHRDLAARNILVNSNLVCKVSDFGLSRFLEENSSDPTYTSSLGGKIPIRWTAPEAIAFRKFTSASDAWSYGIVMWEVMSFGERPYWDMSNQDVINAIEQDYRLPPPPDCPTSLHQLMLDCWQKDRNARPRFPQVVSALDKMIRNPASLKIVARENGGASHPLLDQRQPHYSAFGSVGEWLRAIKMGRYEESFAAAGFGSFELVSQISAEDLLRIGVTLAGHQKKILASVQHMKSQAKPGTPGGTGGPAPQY
# Description: (§1) Binding to selected ephrin receptors was measured by surface plasmon resonance on a Biacore3000 instrument. Commercially available ephrin receptors: EphA2, EphB2 and EphB4 (R&D Systems) were immobilized on a CM-5 chip by amine coupling and tested peptides were passed over a chip surface as analytes.
# (§2) Binding studies. Binding studies were performed by surface plasmon resonance (SPR) on a BIAcore 3000 system (BiaCore AB, Piscataway, N.J.). BIAcore CM5 sensor chips were utilized in all experiments. Binding studies were performed in HBS-EP running buffer (pH=7.4) containing 10 mM HEPES, 150 mM NaCl, 3 mM EDTA, and 0.005% polysorbate 20. Commercially available ephrin receptors: EphA2, EphB2 and EphB4 (R&D Systems, Inc., Minneapolis, Minn.) were immobilized on a CM5 sensor chip using the amine coupling method. The chip was activated by mixing 400 mM N-ethyl-N-(3-dimethylaminopropyl)-carbodiimide hydrochloride and 100 mM N-hydroxysuccinimide. Residual reactive groups on the chip surface were blocked using 1.0 M ethanolamine/HCl (pH=8.5). The flow cell-1 chip, which served as a control, lacked immobilized protein but was treated with N-ethyl-N-(3-dimethylaminopropyl)-carbodiimide hydrochloride, N hydroxysuccinimide, and ethanolamine/HCl. Binding signals were corrected for nonspecific binding by subtracting the flow cell-1 signal (blank surface). To regenerate chip surfaces, bound ligands were removed with 10 mM HCl. Data were analyzed with BIAevaluation 4.1 software (Biacore, Piscataway, N.J.).
# [1] = MultiTox-Fluor Multiplex Cytotoxicity Assay, RAW 264.7 cells; type: cell-based; conditions: mouse, 24 h co-culture, read-out: LD50, RAW cells
# Description: Experiments were carried out using MultiTox-Fluor Multiplex Cytotoxicity Assay (Promega Corp., Madison, Wis.) as previously described. This assay simultaneously measures the number of live and dead cells in culture wells based on the activity of two proteases, one a marker of cell viability, and the other a marker of cytotoxicity, which yield products with different excitation and emission spectra. Briefly, for cytotoxicity experiments murine LCC (or RAW 264.7) cells were plated in a 96-well plate at a density of 1×10^4 cells/well in a total volume of 50 μl of culture media and treated with various concentrations of tested peptides (50 μl of 0-400 μM peptides in culture media). Cells' viability was assessed 24 h later by MultiTox-Fluor Multiplex Cytotoxicity Assay (incubation time 1 h). For cell viability experiments, LCC cells were plated in a 96-well plate at a density of 5×10^3 cells/well in a total volume of 50 μl of culture media and treated with various concentrations of tested peptide (50 μl of 0-200 μM peptide in culture media) for 1 hour prior to 0, 2, 4 Gy irradiation. Cell viability was assessed 72 h later by MultiTox-Fluor Multiplex Cytotoxicity Assay (incubation time 1 h). All experiments were carried out in triplicates.
# [2] = test system: human red blood cells (hRBCs)
# Description: Human red blood cells (hRBCs). Fresh blood (˜3 ml) was collected from an anonymous donor into a tube that contained heparin as an anticoagulant. An aliquot of blood (200 μl) was removed and washed 4 with 800 μl of cold PBS at room temperature, each centrifugation was for 3 minutes at ˜500×g. A total of 780 μl of supernatant was removed each time. With four washes, this procedure should remove >99.8% of the total serum protein and any heparin anticoagulant. The supernatant was completely removed in the last wash, leaving only the packed red blood cells, which were subsequently diluted 1:20 in PBS to make 5% v/v stock of hRBCs.
# Hemolysis assay. The experiments were carried out as previously described. Briefly, 2.5% v/v normal human RBCs were exposed to various concentrations of AzV36-NicL at 37° C. for 30 min. All experiment were carried out in triplicate using 96-well microplate (Costar 3596) and OD at 700 nm was monitored every 30 s. employing the SpectraMAX 250 microplate reader (Molecular Devices, Sunnyvale, Calif.). Controls: PBS, human RBCs, human RBCs+2.5% Triton (100% lysis). The hemolytic effect was calculated as following: […]
# rhEphA2 = rhEphA2 (Homo sapiens, UniProt P29317); assay: SPR binding to immobilized rhEphA2 (Biacore 3000); design: purchased R&D Systems, Inc., Minneapolis, Minn
# Description: as §1, §2
smiles,measurement,setting,value
"CC(=O)NCSC[C@H](NC(=O)[C@H](CC1CCCCC1)NC(=O)[C@H](CC1CCCCC1)NC(=O)[C@@H](CCCCNC(=O)c1cccnc1)NC(=O)[C@@H](N)Cc1ccc(O)cc1)C(=O)N[C@H](C(=O)N[C@@H](CC1CCCCC1)C(=O)N1[C@H](C(=O)N[C@H](CCCNC(=N)N)C(=O)N[C@@H](Cc2c[nH]cn2)C(=O)N[C@@H](CCCNC(=N)N)C(=O)N[C@H](C(=O)N[C@@H](CC2CCCCC2)C(=O)N[C@@H](CSCNC(C)=O)C(=O)N[C@H](CCCCN)C(N)=O)[C@@H](C)O)C[C@@H]2CCCC[C@@H]21)C(C)(C)C [AzV36-NicL, YkNic-Cha-Cha-Cam-Tle-Cha-Oic-rHRT-Cha-Cam-k-CONH] (H-Y[dK](Nicotinoyl)[Cha][Cha]C(Acm)[Tle][Cha][Oic][dR]HRT[Cha]C(Acm)[dK]-NH2)",Kd,rhEphB4,5.83 ± 1.4 nM
same,CC50 at 24 h,[1],10300 ± 780 nM
same,Hemolysis ± SEM,"[2]; 20 μM peptide (highest tested), 2.5% hRBCs, 37° C., 30 min",9.3±3.0%
same,hemolytic effect (in words),[2]; ≦10 μM peptide,non-hemolytic
same,Kd,rhEphA2,13.9 ± 2.9 nM
